B1: proteolysis-resistant owl monkey TRIMCyp_(K283D,Q287D) (natural protein)
chain: not shown
B2: African green monkey TRIM5α (Chlorocebus pygerythrus) (natural protein, UniProt Q5C8U4 1-515, looked up)
chain: MASGILVNVKEEVTCPICLELLTEPLSLPCGHSLCQACITANHKESMLYKEEERSCPVCRISYQPENIQPNRHVANIVEKLREVKLSPEEGQKVDHCARHGEKLLLFCQEDSKVICWLCERSQEHRGHHTFLMEEVAQEYHVKLQTALEMLRQKQQEAEKLEADIREEKASWKIQIDYDKTNVSADFEQLREILDWEESNELQNLEKEEEDILKSLTKSETEMVQQTQYMRELISDLEHRLQGSMMELLQGVDGIIKRVENMTLKKPKTFHKNQRRVFRAPDLKGMLDMFRELTDVRRYWVDVTLAPNNISHAVIAEDKRQVSYRNPQIMYQSPGSLFGSLTNFSYCTGVPGSQSITSGKLTNFNYCTGVLGSQSITSGKHYWEVDVSKKSAWILGVCAGFQPDATYNIEQNENYQPKYGYWVIGLQEGDKYSVFQDGSSHTPFAPFIVPLSVIICPDRVGVFVDYEACTVSFFNITNHGFLIYKFSQCSFSKPVFPYLNPRKCTVPMTLCSPSS
notes: also called TRIM5α_(AGMpyg); TRIM5_(AGMpyg)
B3: chimpanzee TRIM5α (Pan troglodytes) (natural protein, chimpanzee (Pan troglodytes), UniProt Q5D7J1 1-493, looked up)
chain: MASGILVNVKEEVTCPICLELLTQPLSLDCGHSFCQACLTANHKKSMLDKGESSCPVCRISYQPENIRPNRHVANIVEKLREVKLSPEGQKVDHCAHHGEKLLLFCQEDGKVICWLCERSQEHRGHHTFLTEEVAREYQVKLQAALEMLRQKQQEAEELEADIREEKASWKTQIQYDKTNVLADFEQLRDILDWEESNELQNLEKEEEDILKSLTKSETEMVQQTQSVRELISDLERRLQGSVMELLQGVDGVIKRMENVTLKKPETFPKNQRRVFRAPDLKGMLEVFRELTDVRRYWVDVTVAPNNISCAVISEDMRQVSSPKPQIIYGARGTRYQTFMNFNYCTGILGSQSITSGKHYWEVDVSKKSAWILGVCAGFQPDAMCNIEKNENYQPKYGYWVIGLEEGVKCSAFQDGSFHTPSAPFIVPLSVIICPDRVGVFLDYEACTVSFFNITNHGSLIYKFSHCSFSQPVFPYLNPRKCGVPMTLCSPSS
notes: also called TRIM5αcpz
B4: owl monkey TRIMCyp (Aotus trivirgatus) (natural protein)
chain: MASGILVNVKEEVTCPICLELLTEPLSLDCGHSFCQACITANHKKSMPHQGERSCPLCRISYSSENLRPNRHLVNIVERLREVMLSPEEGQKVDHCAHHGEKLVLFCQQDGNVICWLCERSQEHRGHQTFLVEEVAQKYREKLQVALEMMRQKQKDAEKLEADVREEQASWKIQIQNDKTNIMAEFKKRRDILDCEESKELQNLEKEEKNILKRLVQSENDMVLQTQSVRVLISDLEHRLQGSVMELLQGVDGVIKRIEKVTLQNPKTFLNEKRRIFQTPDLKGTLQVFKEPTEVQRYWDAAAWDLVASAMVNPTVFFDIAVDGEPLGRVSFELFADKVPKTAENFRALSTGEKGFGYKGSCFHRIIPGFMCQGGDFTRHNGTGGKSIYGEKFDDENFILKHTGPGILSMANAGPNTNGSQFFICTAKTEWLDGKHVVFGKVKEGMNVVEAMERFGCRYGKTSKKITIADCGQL

Target: the molecule itself
Assay: SEC; final gel filtration step, HiLoad 16/600 Superdex 200 in 20 mM CHES, 100 nM ZnCl2, 1 mM TCEP, pH 10.0, 4°C; oligomer judged from retention time

| Protein | stoichiometry N |
| --- | --- |
| B1 | 2 |
| B2 | 2 |
| B3 | 2 |
| B4 | 2 |
